Values quoted from earlier work as cited in article PMC9741594.

Target: T1, Internalin A (on whole Listeria monocytogenes cells) (Listeria monocytogenes (strain not given in the material)) (UniProt P0DJM0)
T1 sequence: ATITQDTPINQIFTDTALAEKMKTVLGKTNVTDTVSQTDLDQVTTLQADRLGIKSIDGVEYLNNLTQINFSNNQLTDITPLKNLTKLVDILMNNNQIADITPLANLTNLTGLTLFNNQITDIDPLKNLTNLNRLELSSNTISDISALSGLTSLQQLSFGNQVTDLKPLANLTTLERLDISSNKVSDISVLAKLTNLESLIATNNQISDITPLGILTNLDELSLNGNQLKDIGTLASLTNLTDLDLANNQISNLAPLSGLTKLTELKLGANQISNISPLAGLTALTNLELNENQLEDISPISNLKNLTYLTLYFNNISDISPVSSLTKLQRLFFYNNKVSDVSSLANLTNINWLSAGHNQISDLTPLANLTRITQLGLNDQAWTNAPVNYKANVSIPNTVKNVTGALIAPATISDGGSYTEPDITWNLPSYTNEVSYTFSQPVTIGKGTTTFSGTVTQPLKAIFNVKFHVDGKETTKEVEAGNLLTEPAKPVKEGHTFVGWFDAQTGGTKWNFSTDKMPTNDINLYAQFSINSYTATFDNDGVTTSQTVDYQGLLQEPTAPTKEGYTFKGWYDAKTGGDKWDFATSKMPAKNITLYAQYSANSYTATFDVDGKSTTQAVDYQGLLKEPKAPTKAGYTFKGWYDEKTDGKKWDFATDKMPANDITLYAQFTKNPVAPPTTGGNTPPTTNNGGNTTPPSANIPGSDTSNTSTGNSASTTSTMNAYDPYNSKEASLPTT
Assay: not stated (cited)
Conditions: printed as KD = 103 CFU/mL, read as 10^3; whole-cell units; 5' amine (immobilized by carbodiimide chemistry on ALG-thiomer/Pt); 5' thiol version also made; PBS, whole L. monocytogenes cells, 15 min capture at pH 7 (extended brush), EIS at pH 3 (collapsed), room temperature; also chicken broth

ATCCATGGGGCGGAGATGAGGGGGAGGAGGGCGGGTACCCGGTTGAT [A8 anti-Internalin A aptamer]
Kd: 1000 CFU/mL
